# Experimental data from article PMC4771821, “Structural and spectroscopic characterisation of a heme peroxidase from sorghum” (Journal of Biological Inorganic Chemistry, 2015).
# Substrate: COc1ccccc1O
# Experiment: purified protein
# Format: biochemical, Sorghum bicolor
# Conditions: heme; Ca2+ raises activity
protein,measurement,value
"SK 5912 sorghum peroxidase (cationic class III peroxidase) (Sorghum bicolor) (protein, native enzyme isolated from grain) ARQPPLAPGLSFDFYKRSCPKAESIVRSFVQDAVRRDVGLAAGLLRLHFHDCFVQGCDASVLLDGSATGPGEQQAPPNLTLRPTAFKAINDIHDRLHKECGGTVVSCSDVLALAARDSVVVSGGPSYKVPLGRRDSASFATQQDVLSGLPPPTAAVPALLAVLSKINLDATDLVALSGGHTIGLGHCTSFEDRLFPRPDPTLNATFAGQLRRTCPAKGTDRRTPLDVRTPNAFDNKYYVNLVNREGLFTSDQDLFSNARTRALVDKFARSQRDFFDQFAFSVVKMGQIKVLTGTQGQIRTNCSARNAAGTTMLPWSVSVVEEAADESLGVF",Km,1.6 ± 0.4 mM
